Assay results from the supplement of paper PMC10567573.

B1: ZBED2 (parent)
chain: RAGHHPNQYATCRLCGRQVSRGPG

Variants of: B1
Test: protein stability index of a GFP-peptide fusion (GPS, HEK-293T) (PSI 1-6); higher = more stable
Conditions: c terminus: a fixed tail appended
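Also: lentivirally expressed fusions sorted by FACS into six bins by GFP to DsRed ratio, PSI derived from sequencing read proportions per bin multiplied by bin number.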

Protein stability index of substitutions, site by site:
R21: C 2.54, L 2.03, K 1.69, E 2.45
Q8: Y 1.13, E 3.47, N 1.68
G22: P 2.57, M 1.57, L 2.48, V 1.77, A 2.21, R 1.95, H 2.12, F 1.55, N 2.29, S 2.53
L14: V 1.07, I 1.48, H 1.75, K 2.66, T 1.49, N 1.25, W 2.12, R 2.39, S 1.57, A 1.78
C12: I 2.64, V 2.49, R 3.2, M 2.28, T 3.19, A 3.19, Q 3.12, P 2.98, K 2.4, G 3.16
R13: Y 2.42, M 2.24, L 1.58, H 1.59, P 3.18, F 1.36
G3: S 1.57, T 2.19, L 2.27, E 2.06, C 4.01, R 2.09, M 2.52, V 1.64, Q 1.75, I 1.55, A 2.29
G24: M 2.17, R 1.8, I 2.11, A 1.24, H 2.15, V 1.61, E 2.35
A10: S 2.2, M 1.8, N 1.64, L 2.12, D 1.79, K 1.67, G 2.12
R17: C 1.91, I 1.86, S 1.79, A 1.69, E 1.93
T11: N 1.97, Y 3.09, S 1.5
G16: W 3.77, S 2.2, N 2.51, C 1.25, Y 3.58, E 2.46, Q 1.81, D 1.78
H4: G 2.21, I 3.21, L 1.78, D 2.09, C 1.84, E 2.16, Y 1.24
Y9: F 1.67, N 2.33, A 2.33, H 2.28, S 2.72
P23: V 1.84, C 2.96, N 1.88, T 2.2, S 2.05, F 1.54, R 2.8, Q 2.11, Y 1.54
C15: V 2.2, S 2.34, R 2.83, A 1.4, H 1.93, Y 1.42, D 3.55, N 2.19, G 2.6, F 1.7, I 1.95
A2: Y 2.04, L 2.19, M 1.97, Q 1.4
S20: I 1.48, R 2.26, F 1.79, C 2.49, D 1.93, N 1.79, E 2.88, W 1.59
Q18: G 2.68, F 2.67, N 2.12, P 2.69, E 1
N7: Y 2.9, S 1.88, E 2.52, M 2.04, K 1.81, F 1.08
H5: L 1.86, D 3.27, F 1.89, N 2.5, Y 2.37, Q 2.16, M 2.41
P6: Y 1.02, I 1.45, F 1.33, D 2.02, R 1.83
V19: Y 2.24, S 1.65, C 3.7, H 3.82, P 1.98, F 2.08, G 2.53, T 2.22
R1: C 3.55, S 1.86, E 2.53, H 2.13, V 1.33, K 1.68, P 1.04, I 2.13
